{
  "source": "patent US6602687B1",
  "about": "“DNA encoding human ciliary neurotrophic factor and method for producing the protein encoded thereby” (Regeneron Pharmaceuticals, Inc., priority 1989, dated 2003)",
  "molecules": {"B1": {"name": "CNTF: ciliary neurotrophic factor; recombinant rat CNTF in Sections 10, 15, 17, purified rat sciatic nerve CNTF in Section 11; see endpoint conditions (protein, UniProt P20294 1-200, looked up)", "Ciliary neurotrophic factor": "MAFAEQTPLTLHRRDLCSRSIWLARKIRSDLTALMESYVKHQGLNKNINLDSVDGVPVASTDRWSEMTEAERLQENLQAYRTFQGMLTKLLEDQRVHFTPTEGDFHQAIHTLMLQVSAFAYQLEELMVLLEQKIPENEADGMPATVGDGGLFEKKLWGLKVLQELSQWTVRSIHDLRVISSHQMGISALESHYGAKDKQM"}},
  "key": {"[1]": {"system": "motorneurons in the facial nerve nuclei", "assay": "Unilateral facial nerve lesion in newborn rat with gelfoam implant, motorneuron count", "assay_type": "in vivo", "method": "The facial nerves of newborn rat pups were sectioned unilaterally and small gelfoam implants containing either 5 μg bovine serum albumin or 5 μg CNTF were placed at the lesion sites. […] After one week, the animals were sacrificed and sections of their brainstem, containing a facial nerve nucleus on the same side as the lesioned nerve (ipsilateral to the lesion) and a facial nerve nucleus on the side opposite to the lesion (contralateral to the lesion) were produced. The contralateral facial nucleus served as an internal control. Facial nucleus sections were stained with either Nissl stain (to stain motorneurons) or with antibody to glial fibrillary acidic protein (to detect the respose of glial cells to injury)."}, "[2]": {"system": "Ventral spinal cord neurons", "assay": "E14 rat ventral spinal cord neuron cultures in defined medium", "assay_type": "cell-based", "conditions": "CNTF 2 μl/ml", "description": "Sprague-Dawley rats (HSD) were used for all experiments. Pregnant rats were sacrificed by carbon dioxide asphyxiation, and the embryos were rapidly removed and placed in ice-cold Puck's saline G for further dissection.\nSpinal cords were removed aseptically from rat embryos on the 14th day of gestation. The spinal cord was severed caudal to the bulb, freed of sensory ganglia and meninges. The cord was then subdivided into ventral and mediodorsal segments for separate cultures. The cord tissues were minced into small pieces and mechanically dissociated by trituration through a Pasteur pipet in defined culture medium consisting of 50% basal medium Eagle (BME; Gibco) and 50% Ham's nutrient mixture F12 (Gibco) supplemented with glucose (33 mM), glutamine (2 mM, NaHCO3 (15 mM), HEPES (10 mM), insulin (25 μg/ml), transferrin (100 μg/ml) putrescine (60 μM), progesterone (20 nM), Na selenite (30 nM), penicillin G (0.5 μg/ml), streptomycin (0.5 μg/ml), and bovine serum albumin (2.5 μg/ml). Trituration was repeated twice and the supernatants were pooled and filtered through a nylon (Nitex, Tetko) filter (40 μm). Total cell number yielded was determined by hemocytometer counting in the presence of trypan blue. Dissociated ventral cells were then plated at a density of 0.5 million cells/35 mm dish coated with poly-D-lysine (10 μg/ml). Dissociated mediodorsal cells were plated at a density of 1.5 million/35 mm dish coated with poly-D-lysine (10 μg/ml), poly-L-ornithine (10 μg/ml), or poly-L-ornithine with laminin (5 μg/ml). Treatments to these cultures were added at the time of plating. Cultures were maintained at 37° C. in a 95% air/5% CO2 atmosphere at nearly 100% relative humidity. Culture medium was changed every three to four days."}, "[3]": {"system": "E18-19 rat hippocampal neurons", "assay": "Counts of NSE-, GAD-, calbindin- and acetylcholinesterase-positive cells in hippocampal cultures", "assay_type": "cell-based", "method": "Hippocampi were dissected from E18-19 rat embryos of Sprague-Dawley rats, and collected in F10 medium. The tissues were minced, rinsed twice with F10 medium (Gibco) and trypsinized with 0.25% trypsin (Gibco) for 20 minutes at 37° C. Trypsin was inactivated by the addition of a serum-containing medium composed of minimal essential medium (MEM) supplemented with fetal calf serum (FCS, 10%), glutamine (2 mM), penicillin (25 U/ml) and streptomycin (25 ug/ml). Dissociated cells obtained by gentle trituration were collected and centrifuged at low speed (500 rpm) for 30 seconds. The centrifugation was repeated twice, and the cell pellets were then resuspended in serum-containing medium. The cells were then plated onto 6 mm wells or 35 mm dishes that were coated with polyornithine (10 ug/ml) and laminin (10 ug/ml). In most of the experiments, the cells were plated at a low density of approximately 71,000 cells/cm^2. Five to six hours following the plating of cells, medium was changed to a serum-free medium containing 1% N3 and penicillin-streptomycin (25 units/ml and 25 ug/ml, respectively), at which time CNTF was added. Medium was changed every three to four days, with re-addition of the factor.\nCells were fixed with 4% paraformaldehyde for 30 minutes at room temperature, washed with PBS. For GAD staining, cells were permeabilized by sequential rinsing with 50%, 70% and 50% ethanol. The cultures were blocked by sequential rinsing with PBS containing 5% normal rabbit serum for one hour, and incubated with sheep anti-GAD antibody 1440 at a 1:6000 dilution) overnight at 4° C. Following three rinses with PBS, cells were then incubated with biotinylated rabbit anti-sheep antibody at a 1:400 dilution for at least 90 minutes at room temperature. For GABA staining, cells were permeabiized with Triton X-100 (0.25%) in Tris-HCl (0.1M, pH 7.3), and blocked with 10% normal goat serum for 90 minutes, prior to incubation with rabbit anti-GABA antibody (1:5000) ovenight at 4° C. Following three rinses with PBS, cells were then incubated with biotinylated goat anti-rabbit antibody at a 1:200 dilution for at least 90 minutes at room temperature. GAG- or GABA imminoreactive cells were visualized by using the Vectastain ABC kit (Vector Labs).\nFollowing fixing with 4% paraformaldehyde, cells were blocked with 10% normal goat serum (NGS) in PBS containing 0.1% Triton X-100. The cells were then incubated with the primary antibody (rabbit anti-NSE, 1:5000) overnight at 4° C. The cells were then incubated with the secondary antibody (goat anti-rabit, 1:200 dilution) for at least 90 minutes at room temperature. NSE-immunopositive cells were visualized using the Vectastain ABC kit (Vector Labs).\nCells were rinsed twice with PBS, and fixed with 4% paraformaldehyde for 30 minutes at room temperature. […]"}, "[4]": {"conditions": "gelfoam implant impregnated with CNTF, one week"}, "[5]": {"conditions": "gelfoam with 5 μg purified rat sciatic nerve CNTF, one week after lesion"}, "[6]": {"conditions": "single animals, gelfoam with 5 μg purified rat sciatic nerve CNTF, one week after lesion"}, "[7]": {"conditions": "recombinant rat CNTF 10 ng/ml, 8 days"}},
  "note": "Several values for one entry are separate records, joined by “and”; a condition that tells them apart may be missing. Identical values can stand only once.",
  "data": [
    {"molecule": "B1", "values": [
      {"measurement": "facial nerve motorneurons rescued that would normally have died after axotomy", "setting": "[1]; CNTF applied to cut stump of newborn rat facial nerve", "result": "at least 60%"},
      {"measurement": "loss of motorneurons ipsilateral to the lesion", "setting": "[1]; [4]", "result": "~30", "unit": "%"},
      {"measurement": "motorneuron pool ipsilateral to the lesion, of normal", "setting": "[1]; [4]", "result": 70, "unit": "%"},
      {"measurement": "gliosis in facial nuclei ipsilateral to lesion (anti-GFAP staining), versus BSA treated rats", "setting": "[1]; gelfoam with 5 μg CNTF", "result": "comparable amount of gliosis"},
      {"measurement": "Count of motorneurons in the facial nerve nuclei, Contralateral (Control side), group mean (in brackets)", "setting": "[1]; [5]", "result": "(3301)"},
      {"measurement": "Count of motorneurons in the facial nerve nuclei, Lesion-side, group mean (in brackets)", "setting": "[1]; [5]", "result": "(2120)"},
      {"measurement": "Count of motorneurons in the facial nerve nuclei, Contralateral (Control side)", "setting": "[1]; [6]", "result": "3425 and 2990 and 3490"},
      {"measurement": "Count of motorneurons in the facial nerve nuclei, Lesion-side", "setting": "[1]; [6]", "result": "2205 and 3445 and 1270 and 3095"},
      {"measurement": "time ventral neurons survive in defined medium", "setting": "[2]", "result": "> 1", "unit": "week"},
      {"measurement": "CAT Activity", "setting": "[2]; NGF 50 ng/ml at plating, day 7", "result": "959.5 ± 24.32", "unit": "CPM/dish"},
      {"measurement": "Protein", "setting": "[2]; NGF 50 ng/ml at plating, day 7", "result": 45, "unit": "μg/dish"},
      {"measurement": "increase in number of GAD-positive neurons", "setting": "[3]; [7]", "result": 2.3, "unit": "fold"},
      {"measurement": "increase in number of NSE-positive neurons", "setting": "[3]; [7]", "result": 2.2, "unit": "fold"},
      {"measurement": "increase in calbindin-immunopositive cells", "setting": "[3]; recombinant rat CNTF 10 ng/ml, low-density cultures", "result": 3, "unit": "fold"},
      {"measurement": "increase in number of acetylcholinesterase positive cells versus controls", "setting": "[3]; recombinant rat CNTF, after 8 days in culture", "result": "approximately 17 fold"}
    ]}
  ]
}
